Measurements reported in the nanobody polyreactivity screen of Harvey et al. (2022).

Assay: yeast display, Sf9 membrane polyspecificity reagent, FACS + sequencing; frameworks hold sequencing errors
In short: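 In a synthetic yeast display library (Saccharomyces cerevisiae BJ5465), nanobody expression was induced with galactose for 36–48 hours. FACS gates were set low and high (top ~1%) using anti-HA fluorescence for expression and streptavidin fluorescence for binding of the Sf9 membrane reagent. Each polyreactivity label is drawn from the gate of origin.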

Sequence	polyreactivity (PSR sort gate)
QVQLVESGGGLVQAGGSLRLSCAASGSIFYRYAMGWNRPAPGKERELVAAISRSGGTTYYADSVKGRFTISRDNAKNTVYLQMYCLKPEDTAVYYCAALVFHAYSTDPYFYWGQGTQVTVSS	high polyreactivity
QVQLVESGGGLVQAGGSLRLSCAASGLTFYYYAMGWSRQAPGKERELVAAISRSGGSTYYADSVKGRFTISRDNAKNTVYLQINSLKPEDTAVYYCAAREPYEGQRYYYEYYYWGQGTQVTVSS	high polyreactivity
QVQLVESGGGLVQAGGSLLLSCAASGFIFGPYALGWYRQAPGKERELVAAITWRGGRTYYADSVKGRFTISRDNAKNTVYLQMNSLKPEDTAVYYCAADYPYAMDYWGQGTQVTVSS	high polyreactivity
QVQLVESGGGLVQAGGSLRLSCAPSGRTFWAYAMGWYRQAPGKERELVAAITTSGGSTNYADSVKGRFTISRDNAKNTVYLQMNSLKPEDTAVYYCNADPTYHVVNGVGYWGQGTQVTESS	low polyreactivity
QVQLVESGGGLVQAGGSLRLSCAASGSILQRNAMGWYRHARGTERELVAAISWSGDNTYYADSVKGRFTISRDNAKNTVYLQMISLKPEDTAVYYCATDDDIYFQEYDYWGQGTQVTVSA	low polyreactivity
QVQLVESGGGLVQAGGSLRLSCAASGRTLSGNAMGWYRQAPGKERELVASISTSTDGTYYADSVKGRFTISRDNAKNTVYLQMNSLKPEDTAVYYCTTTTYHWYYYRWEIFDYWGQGTQVTVSS	low polyreactivity
QVQLVESGGGLVQAGGSLRLSCAASGSIFRSYAMGWYRQAPGKERELVAGITRGGSTNYADSVKGRFTISRYNAKNTVYLQMNSLKPEDTAVYYCNADTVSLGHSLDDGDYWGQGTQVTVSS	low polyreactivity
QVQLVESAGGLVQAGGSLSLSCAASGFIFDGYAMGWYRQAPGKERELVAAINFSGGSTYYADSVKGRFTISRDNAKNTVYLQMNSLKPEDTSVYYCNADLEWYWVQFGYGYWGQGTQVTVSS	low polyreactivity
QVQLVESGAGLVQAGGSLRLSCAASGITFYDYAMAWYRQAPGKERELVAAISRSGITYYADSVKGRFTISRDNAKNTVYLQMNSLKPEVTAVYYCAAGRSFDQSMYYWGQGTQVTVSS	high polyreactivity
QVQLVESGGGLVQAGGSLRLSCAASGFTFYKNTMGWYRQAPGKVRELGAAISSSGSSTYYADSVKGRFTISRDNAKTTVYLQMNSLKPEDTAVYYCAAVSHYPAGYDYWGQGTQVTVSS	high polyreactivity
QVQLVESGGGLVQAGGTLRLSCAASGRTFGYNAMGWYRPAPGKERELVAVIRSGGSTYYADSVKGRFTISRDNAKNTVYLQMNSLKPEDTAVYYCAATGLYNVTSPYSYKYDYWGQGTQVTVSS	low polyreactivity
QVQLVESGGGLVQAGGSLRLSCAASGRIYSYYAMGWYRQAPGKERELVAGIRSGGSTNYADSVKGRFTISRDNAKNTVYLQMNSLKPEDTAVYYCAARWTRWTSKRFEYWGQGTQVTVSS	high polyreactivity
QVQLVESGGGLVQAGGSLRLSCAASGFTFTHYAMGWYRQAPGKERELVAAISTSGGSTYYADSVKGRFTISRDNAKNTVYLQMNSLKPEDTAVYYCAARRDGWVQWGYYYWGQGTQVTVSS	low polyreactivity
QVQLVESGGGLVQAGGSLRLSCAASGRTFPYNAMGWYRQATGKERELVATINTSGASTSYADSVKRRFTISRDNEKNTVYLQMNSLKPEVTAVYYCNRDRRYYHRFDYWGQGTQVTVSS	low polyreactivity
QVQLVESAGGLVQAGGSLRLSCPASGGIFSWYHMGWYRQEPGKERELVAAISWSGGSTYYADSVKGRFTISRDNAKNTVYLLMNSLKPEDTAVYYCADYTADDYDYWGQGTQVTVSS	high polyreactivity
QVQLVESGGGLVQAGGSLRLSCAASGRSFPAYAMGWYRQAPGKERELVAAISQSGGSTYYADSVKGRFTISRDNAKNTVYLQMNSLKPEDTAVYYCAAGWYVSYYWYDYWGQGTQVTVSS	high polyreactivity
QVQLVESGGGLVQAGGSLRLSCAASGFTFWYYDMGWYRQAPGKERELVAAISRSGTSTYYADSVKGRFTISRDNAKNTVYLQMNSLKPEDTAVYYCNKVRNTRSYDYWGQGTQVTVSS	high polyreactivity
QVQLVESGGGLVQAGGSLRLSCAASGLIFGKYAMGWYRQAPGKERELVAAITSSGGGTYYADSVKGRFTISRDNAKNTVYLQMNSLKPEDTAVYYCATGPDPKYDYWGQGTQVTVSS	high polyreactivity
QVQLVESGGGLVQAGGSLRLSCAASGRILGRYAMGWYRQEPGKERELVASIRGGGSTNYADSVKGRFTISRDNAKNTVYLQMNSLKPEDTAVYYCAKDYDVRVYEYNYWGQGTQVTVSS	low polyreactivity
QVQHVESGGGLVQAGCSLRLSCAASGRTFSSNAMGWYRQAHGKVRELVAVISSGGSTYYADSVKGRFTISRDNAKNTVYLEMYSMKPEDTAVYICAAAVGPSGYYYESDYWGQGTQETVSS	high polyreactivity
QVQLVESGGGLVQAGGSLRLSCAASGRIFHYYMGWYRQAPGKERELVAVISSGDGTYYADSVKGRFTISRDNAKYTVYLQMNSLKPEDTAVYYCAADAPREYVDHYKYDDDYWGQGTQVTVSS	low polyreactivity
QVQLVESGGGLVQAGGSLRLSCAASGRIFGTYTKGWYRQAPGKERELVAAITTGGITNYADSVKGRFTISRDNAKNTVYLQMKSLKPEDTAVYYCNARWDYGAYEYWGQGTQVTVSS	low polyreactivity

Sequence	polyreactivity (PSR sort gate)
QVQRVESGGGLVQEGGSLRLSCAASGLIFAIYAMGWYRQAPGKDRELVAAMRWSGASTYADSVKGRFTNSRDNAYNTVYLQMISLKREDTAVYYCAADDLLDYDYWGQGTQVTVSS	low polyreactivity
QVQLVESGGGLVQAGGSLRLSCAASGFTFDAYDMGWYRQAPGKERELVASITGGGSTYYADSVKGRFTISRDNAKNTVYLQMNSLKPEDTAVYYCAADLYFEGYNRYYHISGFDYWGQGTQVTVSS	low polyreactivity
QVQLVESGGGLVQAGGSLRLSCAASGSTFAPNAMGWYRQAPGKERELVAAISSGGDSTNYADYVKGRFTISRDNAKNTVYLQMNSLKPEDTAVYYCAHGYCFVAYDYWGQGTQVTVSS	low polyreactivity
QVQLVESGGGLVQAGGSLRLSCAASGRIFGVNAMGRYRQAPGKERELVADISSGGSTYYADSVKGRFTISRDNAKNTVYLQMNSLNPEDTAVYSCAVDKYVFVSYSFYFEYDYWGQGTQVTVSS	low polyreactivity
QVQLVESGGGLVQAGGSLRLSCAASGLIFPRYAMGWYRQAPGKERELVAAITRGGSTYYADSVKGRFTISRDNAKNTVYLQMNSLKPEDTAVYYCNAELPVHWSWYDYWGQGTQVTVSS	low polyreactivity
QVQLVESGGGLVQAGGSLRLSCAASGRTFYSYVMGWSRQAPGKERELVAAISQSGGNTYYADSVKGRFTISRDNAKNTVYLQMNSLKPEDTAVYYCAAGGVLTSWFGQEYEYYYWGQGTQVTVSS	high polyreactivity
QVQLVESGGGLVQAGGSLRLSCAAYGSIFRLYAIGWSRQAPGKDRELVAAISSVGRTYYAYSVKGRFTISRDNAKNTVYLQMNSLKPEDSAVYYCAARPYKFARYDYWGQGTQVTVSS	high polyreactivity
QVQLVETGGGLVQAGGSLRLCCAASGRIFWYNAMGWYRPAPGKERELVAAISSIDGTTYYADSVKGRFTISRDNAKNTVYLQMNSLKPEDTAVYYCAAEDPADQYDYWGQGTQVTVSS	high polyreactivity
QVQLVESGGGLVQAGGSLRLSCAASGSTFYGNAMGWYRQAPGKERELVATIDSTAGTNYADSVKGRFTISRDNAKNTVYLQMNSLKPEDTAVYYCAREYSIYNPPGYLGTVEYDYWGQGTQVTVSS	low polyreactivity
QFQLVDSVRGLVQAGVSLRLSCAASGRIFVKYVIGSYRQAPGTESQLVAANRSYGGSPYYADSVKGRFTISRDNAKNTVYLQMNSLKPEDTAVYYCAKRLHYSAPRYTEYDEWGHGTQVTVSS	high polyreactivity
QVQLVESGGGLVQAGGSLRLSCAASGIIFQWYAMGWYSQAPGKERELVAAINSDGSTYYADSVKGRFTISRDNAKNTVYLQMNSLIPEDTAVYYCAADFIPLIGFDYWGQGTQVTVSS	low polyreactivity
QVQLVESGGGLVQAGGSLRLSCAASGLTFYHYAMGSYRQAPGKERELVAAITTIGGSTNYADSVKGRFTISRDNAKNTVYLQMNSLKPADNAVYYCAKKLTDAQASSHYDYWGQGTQVTVSS	low polyreactivity
QVQLVESGGGLVQAGGSLRLSFAASGSIFNYNAMGWYRQAPGKERELVAAITYADSVKGRFTISRDNAKNTVYLQMNSLKPEDTAVYHCNTHYVPSFRFDYWGQGTQVTVSS	low polyreactivity
QVQLVESGGGLVLAGGSLRLSCAASGSILYYNAMGWYRQAPVKERELVAAITLDGASTYYSDSVKGLFTISRDNAKNTVYLQMNSLKPEDTAGYYCAADYAYWLSGYDYWGQGSQVTVSS	low polyreactivity
QVQLVESGGGLVQAGGSLRLSCAASGSILSFNAMGWYRQAPGKERELVAAICRGGSTYYADSVKGRFTISRDNAKNTVYLQMNSLKPEDTAVYYCAVQLRRHVDMDYWGQGTQVTVSS	high polyreactivity
QVQLVESGGGLVQAGGSLRLSCAASGSIFDSYAMGWYRQAPGKERELVADITSDGSTHYADSVKGRFTISRDNAKNSVYLQMNSLKPEDTAVYYCAAALPLVDFYDYWGQGTQVTVSS	low polyreactivity
QVQLVESGGGLVQAGGSLRLSCAASGLIFRRYVMGWYRQAPGKERELVAAITSRGTRTYYADSVKGRFTISRDNAKNTVYLQMNSLKPEDTAVYYCAADGGISAGANSGYDYWGQGTQVTVSS	high polyreactivity
QVQLVESGGGLVQAGGSLRLSCAASGRSFQGYAMGWYRKAPGKERELVAAISWSGGSTYYADSVKGRFTISRDNAKNTVYLQMNSLKPEDTAVYYCAASYDIYGNYRRYDYWGQGTQVTVSS	high polyreactivity
QVQLVETGGGLVQAGGSLRLSCAASGSIFEYNAMGWYRQAPGKERELVAAISWSSGTTYYADSVKGRFTISRDNAKNSVYLQMNSLKPEDNAVYYCNAGRYGKDSVYWGQVTQVTVSS	low polyreactivity
QVQLEESGGGLVQAGASLRLSCAASGFIFTSYAMGWYRQAPGKEREFVAASSRRGGSTYYADSVKGRFTISRDNAKNTVYLQMNILKPEYTAVYYCAADPKQHAGYEYWGQGTQVTVSS	high polyreactivity
QVQLVETGGGLVQAGGSLRLSSAASGSTFAWYAMGWYRQAPGKEREFVAAIDQDDDSTYYADSVKGRFTISRDNAKNTVYLQMKSLKPEDTAVYYCAASSPWEQSNDQFYYWGQGTQVTVSS	low polyreactivity
